Data from paper PMC7610968 (Molecular cell, 2007).

Target: T1, szz-tagged mutant Rrp44-cat protein (S. cerevisiae, UniProt Q08162 1-1001, D551N)
T1 sequence (looked up): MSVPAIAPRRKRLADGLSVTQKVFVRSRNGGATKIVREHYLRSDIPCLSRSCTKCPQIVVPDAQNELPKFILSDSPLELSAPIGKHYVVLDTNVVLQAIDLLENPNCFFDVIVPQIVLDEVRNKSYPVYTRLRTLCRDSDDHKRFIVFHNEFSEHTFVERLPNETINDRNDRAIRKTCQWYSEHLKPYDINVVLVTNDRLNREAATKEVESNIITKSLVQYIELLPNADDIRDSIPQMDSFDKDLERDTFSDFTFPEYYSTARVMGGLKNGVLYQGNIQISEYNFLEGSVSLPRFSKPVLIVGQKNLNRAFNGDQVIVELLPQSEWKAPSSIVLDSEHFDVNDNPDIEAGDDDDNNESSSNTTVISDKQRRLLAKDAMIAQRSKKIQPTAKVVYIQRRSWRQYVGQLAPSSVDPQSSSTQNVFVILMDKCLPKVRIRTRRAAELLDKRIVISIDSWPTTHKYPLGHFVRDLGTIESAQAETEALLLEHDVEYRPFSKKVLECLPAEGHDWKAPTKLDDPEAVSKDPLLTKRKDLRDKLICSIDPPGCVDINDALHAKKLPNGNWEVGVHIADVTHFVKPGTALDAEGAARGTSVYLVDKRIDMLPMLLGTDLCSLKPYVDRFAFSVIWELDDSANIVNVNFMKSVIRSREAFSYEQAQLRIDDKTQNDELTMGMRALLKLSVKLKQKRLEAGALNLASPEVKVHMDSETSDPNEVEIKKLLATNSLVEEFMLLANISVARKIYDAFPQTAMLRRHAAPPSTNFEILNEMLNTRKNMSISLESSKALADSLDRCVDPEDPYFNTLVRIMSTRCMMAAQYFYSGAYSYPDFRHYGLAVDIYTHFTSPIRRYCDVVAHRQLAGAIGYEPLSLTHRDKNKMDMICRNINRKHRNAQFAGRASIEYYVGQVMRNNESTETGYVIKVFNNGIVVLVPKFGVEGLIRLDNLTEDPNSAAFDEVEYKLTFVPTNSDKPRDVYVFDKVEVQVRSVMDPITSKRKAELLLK
Experiment: co-IP

B1: Rrp6 (natural protein, UniProt Q12149 1-733, looked up)
chain: MTSENPDVLLSRVINVVRAASSLASQDVDFYKNLDRGFSKDLKSKADKLADMANEIILSIDEHHESFELKEEDISDLWNNFGNIMDNLLEMSDHSLDKLNCAINSKSRGSDLQYLGEFSGKNFSPTKRVEKPQLKFKSPIDNSESHPFIPLLKEKPNALKPLSESLRLVDDDENNPSHYPHPYEYEIDHQEYSPEILQIREEIPSKSWDDSVPIWVDTSTELESMLEDLKNTKEIAVDLEHHDYRSYYGIVCLMQISTRERDYLVDTLKLRENLHILNEVFTNPSIVKVFHGAFMDIIWLQRDLGLYVVGLFDTYHASKAIGLPRHSLAYLLENFANFKTSKKYQLADWRIRPLSKPMTAYARADTHFLLNIYDQLRNKLIESNKLAGVLYESRNVAKRRFEYSKYRPLTPSSEVYSPIEKESPWKILMYQYNIPPEREVLVRELYQWRDLIARRDDESPRFVMPNQLLAALVAYTPTDVIGVVSLTNGVTEHVRQNAKLLANLIRDALRNIKNTNEEATPIPSSETKADGILLETISVPQIRDVMERFSVLCNSNISKSRAKPVTNSSILLGKILPREEHDIAYSKDGLPNKVKTEDIRIRAQNFKSALANLEDIIFEIEKPLVVPVKLEEIKTVDPASAPNHSPEIDNLDDLVVLKKKNIQKKQPAKEKGVTEKDAVDYSKIPNILSNKPGQNNRQQKKRRFDPSSSDSNGPRAAKKRRPAAKGKNLSFKR
- fold recovered against wild-type Rrp44-szz: ~2 fold
